Legend:
Test in all cases: cell-based or functional assay
[1] = molecular target: TrkA (h) (human) (UniProt P04629)
[2] = molecular target: IRR (h) (human) (UniProt P14616)
[3] = molecular target: FGFR2 (h) (human) (UniProt P21802)
[4] = molecular target: T1, NEK3 (h) (human) (UniProt P51956)
T1 sequence (looked up): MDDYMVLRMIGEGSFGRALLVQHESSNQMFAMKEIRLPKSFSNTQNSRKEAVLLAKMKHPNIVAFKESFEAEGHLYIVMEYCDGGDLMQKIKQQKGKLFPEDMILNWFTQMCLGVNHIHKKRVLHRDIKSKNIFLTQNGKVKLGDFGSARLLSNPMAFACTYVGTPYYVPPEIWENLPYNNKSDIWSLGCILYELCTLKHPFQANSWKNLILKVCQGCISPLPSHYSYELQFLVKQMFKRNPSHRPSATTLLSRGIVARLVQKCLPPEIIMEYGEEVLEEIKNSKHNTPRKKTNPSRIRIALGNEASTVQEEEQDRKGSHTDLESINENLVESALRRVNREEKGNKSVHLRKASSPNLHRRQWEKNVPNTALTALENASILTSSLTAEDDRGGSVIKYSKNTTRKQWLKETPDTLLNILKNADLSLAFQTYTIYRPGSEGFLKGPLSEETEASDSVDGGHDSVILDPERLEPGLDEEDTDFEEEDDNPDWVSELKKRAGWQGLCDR

[5] = molecular target: Rsk3 (h) (human) (UniProt Q15349)
Sequence of Rsk3 (h) (human) (Q15349 whole entry): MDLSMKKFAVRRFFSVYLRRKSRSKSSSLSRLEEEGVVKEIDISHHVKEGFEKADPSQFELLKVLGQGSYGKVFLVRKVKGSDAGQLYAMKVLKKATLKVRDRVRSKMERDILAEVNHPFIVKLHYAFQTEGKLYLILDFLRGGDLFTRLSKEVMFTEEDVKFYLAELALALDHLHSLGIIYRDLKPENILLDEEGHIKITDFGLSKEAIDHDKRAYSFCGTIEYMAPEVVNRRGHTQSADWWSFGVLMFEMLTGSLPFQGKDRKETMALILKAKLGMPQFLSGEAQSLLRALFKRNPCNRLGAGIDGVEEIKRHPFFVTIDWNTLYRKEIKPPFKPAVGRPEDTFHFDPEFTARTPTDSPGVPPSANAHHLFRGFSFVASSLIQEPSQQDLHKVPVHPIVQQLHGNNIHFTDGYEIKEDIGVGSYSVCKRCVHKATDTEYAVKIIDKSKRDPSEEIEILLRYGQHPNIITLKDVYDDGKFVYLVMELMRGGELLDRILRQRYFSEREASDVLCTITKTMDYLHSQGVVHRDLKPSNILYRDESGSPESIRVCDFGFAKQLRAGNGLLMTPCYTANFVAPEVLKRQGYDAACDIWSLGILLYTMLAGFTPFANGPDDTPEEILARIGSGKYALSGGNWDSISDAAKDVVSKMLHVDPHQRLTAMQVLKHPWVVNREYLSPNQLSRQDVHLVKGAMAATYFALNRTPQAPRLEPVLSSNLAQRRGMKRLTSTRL

[6] = molecular target: DMPK (h) (human) (UniProt Q09013)
[7] = molecular target: Lck (h) activated (human) (UniProt P06239)
[8] = molecular target: BRK (h) (human) (UniProt Q13882)
[9] = molecular target: PKCγ (h) (human) (UniProt P05129)
[10] = molecular target: EGFR(T790M) (h) (human) (UniProt P00533)
[11] = molecular target: PKCθ (h) (human) (UniProt Q04759)
[12] = molecular target: T2, TSSK1 (h) (human) (UniProt Q9BXA7)
T2 sequence (looked up): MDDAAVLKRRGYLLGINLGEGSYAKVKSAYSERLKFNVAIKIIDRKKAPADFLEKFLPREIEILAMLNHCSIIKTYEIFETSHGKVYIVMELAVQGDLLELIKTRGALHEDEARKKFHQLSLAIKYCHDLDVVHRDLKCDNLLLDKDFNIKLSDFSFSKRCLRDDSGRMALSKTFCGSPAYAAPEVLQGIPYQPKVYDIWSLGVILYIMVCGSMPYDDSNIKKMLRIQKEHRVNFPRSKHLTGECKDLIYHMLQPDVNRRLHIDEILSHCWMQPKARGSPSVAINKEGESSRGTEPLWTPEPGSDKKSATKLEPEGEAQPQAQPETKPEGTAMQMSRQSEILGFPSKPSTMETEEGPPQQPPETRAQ

[13] = molecular target: MST3 (h) (human) (UniProt Q9Y6E0)
[14] = molecular target: T3, MST1 (h) (human) (UniProt Q13043)
T3 sequence (looked up): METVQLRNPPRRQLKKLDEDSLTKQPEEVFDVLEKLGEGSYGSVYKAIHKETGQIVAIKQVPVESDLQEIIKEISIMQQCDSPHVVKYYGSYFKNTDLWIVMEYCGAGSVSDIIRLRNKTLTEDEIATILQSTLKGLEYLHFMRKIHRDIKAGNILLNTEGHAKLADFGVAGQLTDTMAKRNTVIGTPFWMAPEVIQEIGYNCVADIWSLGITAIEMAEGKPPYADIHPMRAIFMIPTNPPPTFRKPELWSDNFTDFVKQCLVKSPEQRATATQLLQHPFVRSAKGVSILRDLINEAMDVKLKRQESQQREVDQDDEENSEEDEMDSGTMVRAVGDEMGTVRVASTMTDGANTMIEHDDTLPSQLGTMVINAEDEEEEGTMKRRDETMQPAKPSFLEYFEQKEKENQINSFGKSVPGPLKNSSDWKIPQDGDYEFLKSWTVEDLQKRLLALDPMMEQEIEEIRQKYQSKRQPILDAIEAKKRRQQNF

[15] = molecular target: MuSK (h) (human) (UniProt O15146)
[16] = molecular target: Met(D1246H) (h) (human) (UniProt P08581)
[17] = molecular target: Flt4 (h) (human) (UniProt P35916)
Sequence of Flt4 (h) (human) (P35916 800-1363 limits assumed): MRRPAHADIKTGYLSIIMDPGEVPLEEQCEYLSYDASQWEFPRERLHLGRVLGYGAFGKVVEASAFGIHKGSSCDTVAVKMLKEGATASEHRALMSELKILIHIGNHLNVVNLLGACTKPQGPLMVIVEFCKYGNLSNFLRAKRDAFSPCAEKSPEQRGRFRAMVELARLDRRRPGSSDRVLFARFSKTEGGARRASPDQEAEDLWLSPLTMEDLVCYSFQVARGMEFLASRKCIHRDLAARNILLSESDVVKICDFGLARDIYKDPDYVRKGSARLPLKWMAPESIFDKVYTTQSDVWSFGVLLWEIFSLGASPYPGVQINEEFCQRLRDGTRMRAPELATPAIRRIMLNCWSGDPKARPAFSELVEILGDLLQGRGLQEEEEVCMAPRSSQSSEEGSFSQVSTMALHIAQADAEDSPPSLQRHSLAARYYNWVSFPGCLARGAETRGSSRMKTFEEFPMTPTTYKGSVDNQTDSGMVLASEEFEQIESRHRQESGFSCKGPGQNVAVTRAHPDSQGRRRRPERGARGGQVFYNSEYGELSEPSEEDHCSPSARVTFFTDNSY

[18] = molecular target: Pim-3 (h) (human) (UniProt Q86V86)
[19] = molecular target: CLK3 (h) (human) (UniProt P49761)
[20] = molecular target: Met(D1246N) (h) (human) (UniProt P08581)
[21] = molecular target: Arg (h) (human) (UniProt P42684)
Sequence of Arg (h) (human) (P42684 38-1182 limits assumed): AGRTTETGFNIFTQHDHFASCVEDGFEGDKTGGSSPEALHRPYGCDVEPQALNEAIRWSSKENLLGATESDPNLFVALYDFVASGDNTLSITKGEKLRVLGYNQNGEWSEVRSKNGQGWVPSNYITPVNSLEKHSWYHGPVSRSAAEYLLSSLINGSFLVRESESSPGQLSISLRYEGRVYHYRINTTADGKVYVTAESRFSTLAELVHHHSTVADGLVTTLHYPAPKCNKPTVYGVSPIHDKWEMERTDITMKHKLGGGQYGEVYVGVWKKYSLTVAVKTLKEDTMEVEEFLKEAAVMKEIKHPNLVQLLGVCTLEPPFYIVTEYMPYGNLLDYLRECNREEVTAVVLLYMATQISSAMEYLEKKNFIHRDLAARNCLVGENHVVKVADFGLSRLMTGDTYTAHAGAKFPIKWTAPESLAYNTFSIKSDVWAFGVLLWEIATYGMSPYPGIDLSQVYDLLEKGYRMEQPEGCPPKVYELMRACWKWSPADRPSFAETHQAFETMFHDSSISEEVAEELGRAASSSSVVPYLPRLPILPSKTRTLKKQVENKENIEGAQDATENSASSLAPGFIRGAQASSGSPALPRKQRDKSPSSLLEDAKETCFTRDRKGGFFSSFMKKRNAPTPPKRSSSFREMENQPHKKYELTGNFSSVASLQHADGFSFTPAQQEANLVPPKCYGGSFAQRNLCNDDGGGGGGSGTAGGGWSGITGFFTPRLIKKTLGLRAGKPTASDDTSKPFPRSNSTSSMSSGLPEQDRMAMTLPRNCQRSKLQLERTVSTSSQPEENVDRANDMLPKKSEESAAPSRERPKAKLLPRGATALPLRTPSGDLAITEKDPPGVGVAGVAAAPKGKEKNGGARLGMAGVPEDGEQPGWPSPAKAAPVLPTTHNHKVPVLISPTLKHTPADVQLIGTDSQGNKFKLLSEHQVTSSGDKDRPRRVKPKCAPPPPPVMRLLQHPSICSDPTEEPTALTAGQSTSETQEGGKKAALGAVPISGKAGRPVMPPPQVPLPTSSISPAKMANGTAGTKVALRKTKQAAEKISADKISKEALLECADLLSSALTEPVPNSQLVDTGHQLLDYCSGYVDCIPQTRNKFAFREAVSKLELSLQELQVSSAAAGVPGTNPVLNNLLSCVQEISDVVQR

[22] = molecular target: SAPK2b (h) (human) (UniProt Q15759)
Sequence of SAPK2b (h) (human) (Q15759 whole entry): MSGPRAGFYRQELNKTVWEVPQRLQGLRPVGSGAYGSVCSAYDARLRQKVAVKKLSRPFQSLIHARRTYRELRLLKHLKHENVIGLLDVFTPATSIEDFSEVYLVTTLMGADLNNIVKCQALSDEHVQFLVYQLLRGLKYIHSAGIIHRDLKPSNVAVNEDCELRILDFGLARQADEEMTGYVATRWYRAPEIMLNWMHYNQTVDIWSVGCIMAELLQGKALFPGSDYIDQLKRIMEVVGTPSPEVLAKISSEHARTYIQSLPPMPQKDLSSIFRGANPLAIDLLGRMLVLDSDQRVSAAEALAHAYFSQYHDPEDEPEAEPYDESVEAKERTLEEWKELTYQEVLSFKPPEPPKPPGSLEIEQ

[23] = molecular target: Abl (h) (human) (UniProt P00519)
Sequence of Abl (h) (human) (P00519 27-1130 limits assumed): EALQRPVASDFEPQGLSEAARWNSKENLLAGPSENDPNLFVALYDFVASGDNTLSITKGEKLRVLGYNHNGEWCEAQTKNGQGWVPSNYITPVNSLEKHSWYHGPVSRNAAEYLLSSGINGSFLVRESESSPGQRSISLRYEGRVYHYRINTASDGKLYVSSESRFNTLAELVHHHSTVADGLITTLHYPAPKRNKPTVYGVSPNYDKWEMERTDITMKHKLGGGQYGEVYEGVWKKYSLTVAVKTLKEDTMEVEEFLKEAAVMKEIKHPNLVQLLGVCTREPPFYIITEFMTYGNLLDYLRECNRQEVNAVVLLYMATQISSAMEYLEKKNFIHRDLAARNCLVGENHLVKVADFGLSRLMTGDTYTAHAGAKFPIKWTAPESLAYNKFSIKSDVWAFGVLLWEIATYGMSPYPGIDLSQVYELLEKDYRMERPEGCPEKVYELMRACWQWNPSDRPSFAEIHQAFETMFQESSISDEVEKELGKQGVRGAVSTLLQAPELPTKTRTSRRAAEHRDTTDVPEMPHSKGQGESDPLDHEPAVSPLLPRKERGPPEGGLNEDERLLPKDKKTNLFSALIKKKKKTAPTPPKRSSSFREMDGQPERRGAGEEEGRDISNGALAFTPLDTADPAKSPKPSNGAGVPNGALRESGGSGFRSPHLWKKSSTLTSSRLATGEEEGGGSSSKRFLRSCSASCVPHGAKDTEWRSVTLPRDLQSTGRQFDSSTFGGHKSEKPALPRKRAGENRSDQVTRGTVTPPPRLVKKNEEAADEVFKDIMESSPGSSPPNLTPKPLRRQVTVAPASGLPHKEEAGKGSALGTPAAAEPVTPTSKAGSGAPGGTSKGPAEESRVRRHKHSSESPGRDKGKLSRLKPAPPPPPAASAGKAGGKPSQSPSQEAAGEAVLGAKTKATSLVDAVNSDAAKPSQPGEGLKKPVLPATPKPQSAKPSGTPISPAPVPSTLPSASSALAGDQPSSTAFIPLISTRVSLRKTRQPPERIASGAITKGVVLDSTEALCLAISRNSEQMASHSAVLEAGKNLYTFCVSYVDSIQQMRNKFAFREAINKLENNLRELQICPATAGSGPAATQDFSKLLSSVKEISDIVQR

[24] = molecular target: CK1γ3 (h) (human) (UniProt Q9Y6M4)
[25] = molecular target: Abl(T315I) (h) (human) (UniProt P00519)
Sequence of Abl(T315I) (h) (human) (P00519 27-1130 T315I limits assumed): as the sequence (P00519 27-1130 limits assumed) above, with T289I counted along it

[26] = molecular target: GRK6 (h) (human) (UniProt P43250)
[27] = molecular target: Ron (h) (human) (UniProt Q04912)
Sequence of Ron (h) (human) (Q04912 983-1400 limits assumed): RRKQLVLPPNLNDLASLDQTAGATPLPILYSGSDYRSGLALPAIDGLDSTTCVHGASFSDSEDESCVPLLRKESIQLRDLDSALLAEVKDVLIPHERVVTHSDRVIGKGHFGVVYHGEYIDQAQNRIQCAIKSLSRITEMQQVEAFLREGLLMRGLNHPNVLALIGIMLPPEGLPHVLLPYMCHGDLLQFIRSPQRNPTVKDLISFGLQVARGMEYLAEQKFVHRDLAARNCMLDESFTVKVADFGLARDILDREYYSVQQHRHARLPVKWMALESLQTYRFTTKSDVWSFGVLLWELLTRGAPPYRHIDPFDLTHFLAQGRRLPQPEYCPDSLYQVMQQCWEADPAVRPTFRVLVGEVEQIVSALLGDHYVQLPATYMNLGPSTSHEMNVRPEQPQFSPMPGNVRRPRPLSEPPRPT

[28] = molecular target: T4, Itk (h) (human) (UniProt Q08881)
T4 sequence (looked up): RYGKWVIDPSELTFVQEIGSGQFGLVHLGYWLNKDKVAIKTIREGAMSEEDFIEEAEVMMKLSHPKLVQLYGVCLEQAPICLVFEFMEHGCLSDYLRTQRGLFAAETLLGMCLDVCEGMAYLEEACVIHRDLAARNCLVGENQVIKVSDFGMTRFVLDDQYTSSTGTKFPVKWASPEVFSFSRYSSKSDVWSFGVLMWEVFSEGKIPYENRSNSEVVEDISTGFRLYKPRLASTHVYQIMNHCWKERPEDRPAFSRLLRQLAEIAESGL

Sequence of IRR (h) (human) (P14616 944-1297 limits assumed): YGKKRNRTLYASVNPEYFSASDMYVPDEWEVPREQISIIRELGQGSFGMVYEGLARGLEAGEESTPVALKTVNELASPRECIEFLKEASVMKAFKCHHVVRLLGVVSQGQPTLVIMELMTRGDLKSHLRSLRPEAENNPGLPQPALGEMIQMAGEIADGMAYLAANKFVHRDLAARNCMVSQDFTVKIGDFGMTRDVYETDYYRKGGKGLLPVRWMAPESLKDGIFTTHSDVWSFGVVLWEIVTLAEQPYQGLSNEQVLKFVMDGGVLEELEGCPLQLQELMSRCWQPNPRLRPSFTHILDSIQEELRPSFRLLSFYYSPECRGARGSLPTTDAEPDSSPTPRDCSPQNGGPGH
Sequence of FGFR2 (h) (human) (P21802 456-770 limits assumed): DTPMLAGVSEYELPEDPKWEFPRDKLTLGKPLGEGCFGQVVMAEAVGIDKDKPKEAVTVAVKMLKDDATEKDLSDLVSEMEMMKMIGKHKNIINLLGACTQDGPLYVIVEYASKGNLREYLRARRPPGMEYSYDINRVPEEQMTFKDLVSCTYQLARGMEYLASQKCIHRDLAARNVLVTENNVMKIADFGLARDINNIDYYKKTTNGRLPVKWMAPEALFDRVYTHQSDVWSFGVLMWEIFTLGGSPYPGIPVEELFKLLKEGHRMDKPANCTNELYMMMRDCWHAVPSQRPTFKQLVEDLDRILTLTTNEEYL

Substance MMI-0300 (peptide) has a % activity at 100 µM [1] of 25%, a % activity at 100 µM [2] of 8% and a % activity at 100 µM [3] of 14%. It also gave a % activity at 100 µM [4] of 92%, a % activity at 100 µM [5] of 76% and a % activity at 100 µM [6] of 59%. It also gave a % activity at 100 µM [7] of 243%, a % activity at 100 µM [8] of 35% and a % activity at 100 µM [9] of 89%. For the same substance, the % activity at 100 µM [10] was 100%, the % activity at 100 µM [11] was 88% and the % activity at 100 µM [12] was 79%. For the same substance, the % activity at 100 µM [13] was 45%, the % activity at 100 µM [14] was 14% and the % activity at 100 µM [15] was 93%. The % activity at 100 µM [16] was 125%, the % activity at 100 µM [17] was 83% and the % activity at 100 µM [18] was 80%. The % activity at 100 µM [19] was 61%, the % activity at 100 µM [20] was 82% and the % activity at 100 µM [21] was 72%. For the same substance, the % activity at 100 µM [22] was 81%, the % activity at 100 µM [23] was 69% and the % activity at 100 µM [24] was 125%. For the same substance, the % activity at 100 µM [25] was 97%, the % activity at 100 µM [26] was 147% and the % activity at 100 µM [27] was 93%. The % activity at 100 µM [28] was 77%.

Reference: patent publication US20160136234A1
